In article doi:10.1101/2020.12.03.409995 (2020):

Tests used:
Biotin-Aβ42 oligomers [1] = target: T1, Biotin-Aβ42 oligomers (human, UniProt P05067 672-713, biotin (position not given)); assay: BLI; koff1 (first site)
Biotin-Aβ42 oligomers [2] = target: T1, Biotin-Aβ42 oligomers; assay: BLI; koff2 (second site)

B1: wild-type sTREM2 (TREM2 ectodomain, residues 19-143, His-tagged) (domain or fragment)
chain: HNTTVFQGVAGQSLQVSCPYDSMKHWGRRKAWCRQLGEKGPCQRVVSTHNLWLLSFLRRWNGSTAITDDTLGGTLTITLRNLQPHDAGLYQCQSLHGSEADTLRKVLVEVLADPLDHRDAGDLWF
Biotin-Aβ42 oligomers [1]
  koff: 0.435 s⁻¹
Biotin-Aβ42 oligomers [2]
  koff: 0.00772 s⁻¹
